Reference: article PMC6133441, “Characterization of neutralizing antibodies reacting with the 213-224 amino-acid segment of human galectin-9” (PLoS ONE, 2018)

Key:
[1] = biological target: T1, human galectin-10 (Homo sapiens, UniProt Q05315, biotin (sites not given)); assay: ELISA; direct ELISA: antibodies coated in a 96-well plate; biotinylated galectins at 1 nM, detected by streptavidin-HRP; for gal-9S also 1h at 37°C with or without lactose 20 mM (S1 Fig); conditions: both partners purified
T1 construct: human galectin-10, recombinant; also called h-Gal 10; source: recombinant
T1 sequence (Q05315 whole entry): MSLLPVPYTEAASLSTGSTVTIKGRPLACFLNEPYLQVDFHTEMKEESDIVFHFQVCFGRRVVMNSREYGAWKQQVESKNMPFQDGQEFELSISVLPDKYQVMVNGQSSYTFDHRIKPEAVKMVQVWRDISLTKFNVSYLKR

[2] = biological target: T2, human galectin-2 (Homo sapiens, UniProt P05162, biotin (sites not given)); assay: as above; conditions: both partners purified
T2 construct: human galectin-2, recombinant; also called h-Gal 2; source: recombinant
T2 sequence (P05162 whole entry): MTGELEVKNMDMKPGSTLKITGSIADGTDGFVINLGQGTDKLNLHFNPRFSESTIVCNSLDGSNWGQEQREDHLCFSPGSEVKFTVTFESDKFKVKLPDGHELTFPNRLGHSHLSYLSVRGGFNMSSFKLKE

[3] = biological target: T3, human galectin-4 (Homo sapiens, UniProt P56470, biotin (sites not given)); assay: as above; conditions: both partners purified
T3 construct: human galectin-4, recombinant; also called h-Gal 4; source: recombinant
T3 sequence (P56470 whole entry): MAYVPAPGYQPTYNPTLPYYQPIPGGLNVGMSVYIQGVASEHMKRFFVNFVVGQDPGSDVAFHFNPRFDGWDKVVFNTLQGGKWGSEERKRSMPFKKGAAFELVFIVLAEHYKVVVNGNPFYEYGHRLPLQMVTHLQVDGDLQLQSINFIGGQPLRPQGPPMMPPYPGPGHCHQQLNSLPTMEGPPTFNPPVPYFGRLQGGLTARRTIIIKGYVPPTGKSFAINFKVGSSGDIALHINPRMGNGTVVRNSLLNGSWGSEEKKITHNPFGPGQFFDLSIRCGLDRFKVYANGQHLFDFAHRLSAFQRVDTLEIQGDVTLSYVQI

[4] = biological target: T4, human galectin-1 (Homo sapiens, UniProt P09382, biotin (sites not given)); assay: as above; conditions: both partners purified
T4 construct: human galectin-1, recombinant; also called h-Gal 1; source: recombinant
T4 sequence (P09382 whole entry): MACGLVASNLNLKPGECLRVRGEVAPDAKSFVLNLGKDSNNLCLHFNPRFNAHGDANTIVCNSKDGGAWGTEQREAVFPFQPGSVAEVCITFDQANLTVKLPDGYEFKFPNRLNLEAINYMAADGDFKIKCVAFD

[5] = biological target: T5, human galectin-7 (Homo sapiens, UniProt P47929, biotin (sites not given)); assay: as above; conditions: both partners purified
T5 construct: human galectin-7, recombinant; also called h-Gal 7; source: recombinant
T5 sequence (P47929 whole entry): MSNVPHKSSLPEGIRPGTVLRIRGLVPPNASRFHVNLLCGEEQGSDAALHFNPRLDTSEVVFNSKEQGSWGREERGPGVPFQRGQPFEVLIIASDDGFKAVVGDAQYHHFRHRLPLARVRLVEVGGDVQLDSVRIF

[6] = biological target: T6, human galectin-8 (Homo sapiens, UniProt O00214, biotin (sites not given)); assay: as above; conditions: both partners purified
T6 construct: human galectin-8, recombinant; also called h-Gal 8; source: recombinant
T6 sequence (O00214 whole entry): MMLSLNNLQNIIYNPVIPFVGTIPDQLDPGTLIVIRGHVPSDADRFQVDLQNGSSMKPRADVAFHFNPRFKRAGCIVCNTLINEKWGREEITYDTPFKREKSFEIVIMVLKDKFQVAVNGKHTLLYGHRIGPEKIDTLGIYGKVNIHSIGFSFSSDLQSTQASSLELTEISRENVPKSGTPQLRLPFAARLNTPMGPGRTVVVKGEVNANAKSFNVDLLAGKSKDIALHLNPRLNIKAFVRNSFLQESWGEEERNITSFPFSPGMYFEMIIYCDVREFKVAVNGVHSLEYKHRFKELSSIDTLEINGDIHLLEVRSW

[7] = biological target: T7, CTB oligopeptide containing the amino-acids 208 to 232 of gal-9L (Homo sapiens, biotin at the C-terminus: K(biotin)-OH); assay: SPR; Biacore T200; biotinylated CTB or scramble oligopeptide on a streptavidin (SA) chip; Gal-Nab1 and Gal-Nab2 as analytes, 0.05 to 3.2 nM, 40 μL/min, 700 s, PBS with albumin 0.1 mg/mL and tween 0.05%; dissociation 800 s; apparent affinities (avidity); design: t1/2: unit not given here; conditions: both partners purified
T7 construct: stuffer aa not related to gal-9, designed to increase solubility and accessibility; stuffer aa not related to gal-9; the last lysine carries the biotin; 32-mer; also called CTB-gal-9 peptide; CTB peptide
T7 sequence (chain, as listed by the source): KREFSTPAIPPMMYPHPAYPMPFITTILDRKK

[8] = biological target: T8, peptide 13 (Homo sapiens, UniProt O00182); assay: ELISA; competition: Gal-Nab1 (0.06 μg/mL) or Gal-Nab2 (0.3 μg/mL) pre-incubated with each 15-mer peptide (0.0001 to 10 μg/mL), then added to plates coated with gal-9; HRP-conjugated anti-mouse antibodies; percent inhibition; conditions: both partners purified
T8 construct: 15-mer of human gal-9, thirteenth of 15 overlapping peptides spanning aa 202-230 (gal-9L coordinates) with a shift of one aa; limits worked out from peptide 1 = 202-216; they are counted from the set
T8 chain: PPMMYPHPAYPMPFI

[9] = biological target: T9, peptide 12 (Homo sapiens, UniProt O00182); assay: as above; conditions: both partners purified
T9 construct: 15-mer of human gal-9, twelfth of 15 overlapping peptides spanning aa 202-230 (gal-9L coordinates) with a shift of one aa; limits worked out from peptide 1 = 202-216; they are counted from the set
T9 chain: IPPMMYPHPAYPMPF

[10] = biological target: human recombinant galectin-9, short isoform (gal-9S) (Homo sapiens, UniProt O00182-3, strain, biotin in the direct ELISA (sites not given); unlabelled in the cell assays); assay: cell-based or functional assay
human recombinant galectin-9, short isoform (gal-9S), sequence (O00182 whole entry, looked up, change not shown, canonical isoform): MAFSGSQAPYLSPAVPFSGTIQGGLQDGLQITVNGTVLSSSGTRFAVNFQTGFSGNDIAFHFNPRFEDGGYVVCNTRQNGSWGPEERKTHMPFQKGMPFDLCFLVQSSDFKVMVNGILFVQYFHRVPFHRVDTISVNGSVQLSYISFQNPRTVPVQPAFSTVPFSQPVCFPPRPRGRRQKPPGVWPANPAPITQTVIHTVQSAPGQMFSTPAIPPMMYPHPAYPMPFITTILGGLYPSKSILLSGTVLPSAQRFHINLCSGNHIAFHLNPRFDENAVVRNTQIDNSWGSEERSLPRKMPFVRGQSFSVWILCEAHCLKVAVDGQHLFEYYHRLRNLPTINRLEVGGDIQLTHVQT

B1: Gal-Nab1 (antibody, V domains shown)
VH: KVQLQQSGAELVKPGASVKLSCKASGYTFTDYTIHWVKQRSGQGLEWIGWFYPGSHSIKYNEQFKDRATLTADKSSSTVYMELSRLTSEDSAVYFCTRHGGYDGFDYWGQGTTLTVSS
VL: DIVMSQSPSSLAVSVGEKITMSCKSSQSLFYSTNQKNYLAWYQQKPGQSPKLLIYWASTRESGVPDRFTGSGSGTDFTLTISSVKAEDLAVYYCQQYYYFPYTFGGGTKLEIK
notes: heavy chain CDR1; heavy chain CDR2; heavy chain CDR3; mouse IgG1 heavy chain constant region (isotype IgG1, kappa as stated); light chain CDR1; light chain CDR2; light chain CDR3; mouse kappa light chain constant region (isotype IgG1, kappa as stated); Mouse IgG1, kappa; Raised against the C-terminal part of human gal-9 (residues 191 to 355 of gal-9L); also called anti-gal-9 mAb
binding result [1]: no binding (tested: 1 nM) | binding result [2]: no binding (tested: 1 nM) | binding result [3]: no binding (tested: 1 nM) | binding result [4]: no binding (tested: 1 nM) | binding result [5]: no binding (tested: 1 nM) | binding result [6]: no binding (tested: 1 nM) | Kd [7]: 0.01 nM | koff [7]: 2.3e-05 s⁻¹ | kon [7]: 2.3e+06 M⁻¹ s⁻¹ | t1/2 [7]: 8.37 | binding result [8]: binds | binding result [9]: binds | EC50 of prevention of gal-9-induced apoptotic death (annexin-V+ PI+) of activated primary CD3+ T cells; gal-9S 40 nM, 36 h, antibody 0.3 to 100 nM [10]: 10 nM | EC50 of reduction of gal-9-induced non-lethal PS translocation (annexin-V+ PI-) in activated primary CD3+ T cells; gal-9S 40 nM, 36 h, antibody 0.3 to 100 nM [10]: 50 nM

B2: Gal-Nab2 (antibody, V domains shown)
VH: KVQLQQSGAELVKPGASVKLSCKASGYTFTEYTIHWVKQRSGQGLEWIGWFYPGSGSMEYNEKFDKATLTADNSSSTVYMELSRLTSEDSAVYFCERHGGYDGFDYWGQGTTLTVSS
VL: DIVMSQSPSSLAVSVGEKVTMSCKSSQSLLYSNNQKNYLAWYQQKPGQSPKLLIYWASTRGSGVPDRFTGSGSGTDFTLTISSVKAEDLAIYYCQQYYSYPFTFGGGTKLEIK
notes: heavy chain CDR1; that of Gal-Nab1 has 17); heavy chain CDR3; mouse IgG1 heavy chain constant region (isotype IgG1, kappa as stated); light chain CDR1; light chain CDR2; light chain CDR3; mouse kappa light chain constant region (isotype IgG1, kappa as stated); Mouse IgG1, kappa; Raised against the C-terminal part of human gal-9 (residues 191 to 355 of gal-9L); also called anti-gal-9 mAb
binding result [1]: no binding (tested: 1 nM) | binding result [2]: no binding (tested: 1 nM) | binding result [3]: no binding (tested: 1 nM) | binding result [4]: no binding (tested: 1 nM) | binding result [5]: no binding (tested: 1 nM) | binding result [6]: no binding (tested: 1 nM) | binding result [9]: binds | EC50 of prevention of gal-9-induced apoptotic death (annexin-V+ PI+) of activated primary CD3+ T cells; gal-9S 40 nM, 36 h, antibody 0.3 to 100 nM [10]: 25 nM
